Our source for the Kd, OD450 nm and IC50 values is patent US20230212285A1 (published 2023).

Like-named read-outs stand apart in the source and are kept apart here. Some results are limits rather than exact numbers.

In one assay the target is T1, human FcγRI, His6-tagged (human, UniProt P12314 16-288).
T1 construct: also called FcG RI
The assay is described as follows: SPR, 1:1 kinetic. As for the experimental part: (§1) Interaction affinities for IgGs were determined by surface plasmon resonance using a BIACORE® T200 instrument. For most analyses, His6-tagged FcγRI, FcγRIIa (167R and 167H variants), FcγRIIb, FcγRIIIa (176F and 176 V variants), and FcγRIIIb receptors (all Sino Biological) were captured on a CM5 sensor chip coated with an anti-HIS antibody by standard amine coupling. Receptor-specific formats of analyses were then applied, as below.
Regeneration with 2× injections glycine pH 1.5 and analysis using 1:1 fit.
On the technique in general: SPR reads the build-up and loss of mass on a sensor chip optically.

In assay [1] the target is T2, human FcγRIIa 167H variant, His6-tagged (human, UniProt P12318 34-218).
T2 construct: also called FcG RIIa (167H)
T2 sequence (looked up): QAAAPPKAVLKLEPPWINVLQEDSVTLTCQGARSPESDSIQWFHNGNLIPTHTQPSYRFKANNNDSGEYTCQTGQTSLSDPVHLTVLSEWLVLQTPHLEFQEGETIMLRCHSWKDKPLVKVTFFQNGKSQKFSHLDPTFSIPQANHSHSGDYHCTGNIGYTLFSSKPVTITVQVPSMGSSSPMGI
The assay is described as follows: SPR, steady state. As for the experimental part: as §1

The target of assay [2] is T3, human FcγRIIb, His6-tagged (human, UniProt P31994 43-217).
T3 construct: also called FcG RIIb
T3 sequence (looked up): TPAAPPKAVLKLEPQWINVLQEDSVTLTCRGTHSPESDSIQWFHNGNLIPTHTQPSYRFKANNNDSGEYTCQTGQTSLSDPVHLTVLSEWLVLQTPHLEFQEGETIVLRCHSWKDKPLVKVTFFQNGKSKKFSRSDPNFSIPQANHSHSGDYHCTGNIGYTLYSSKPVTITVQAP
The assay is described as follows: SPR, steady state. As for the experimental part:
as §1

Assay [3] deals with T4, human FcγRIIIa 176F variant, His6-tagged (human, UniProt P08637 17-208).
T4 construct: also called FcG RIIIa (176F)
T4 sequence (P08637 17-208 limits assumed, change not shown): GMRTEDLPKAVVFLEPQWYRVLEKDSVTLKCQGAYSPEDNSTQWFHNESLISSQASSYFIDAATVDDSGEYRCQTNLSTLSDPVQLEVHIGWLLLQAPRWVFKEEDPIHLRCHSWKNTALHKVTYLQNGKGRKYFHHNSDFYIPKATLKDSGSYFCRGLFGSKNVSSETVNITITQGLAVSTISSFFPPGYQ
The assay is described as follows: SPR, steady state. Here is the method: as §1

The target of assay [4] is T5, human FcγRIIIa 176V variant, His6-tagged (human, UniProt P08637 17-208).
T5 construct: also called FcG RIIIa (176V)
T5 sequence (P08637 other isoform, or with tags, fused parts or gaps mutant limits assumed): as the sequence (P08637 17-208 limits assumed, change not shown) above, with F160V counted along it
The assay is described as follows: SPR, steady state. Here is the method: as §1

The target of assay [5] is T6, human FcγRIIIb, His6-tagged (human, UniProt O75015 17-200).
T6 construct: also called FcG RIIIb
T6 sequence (O75015 17-200 limits assumed): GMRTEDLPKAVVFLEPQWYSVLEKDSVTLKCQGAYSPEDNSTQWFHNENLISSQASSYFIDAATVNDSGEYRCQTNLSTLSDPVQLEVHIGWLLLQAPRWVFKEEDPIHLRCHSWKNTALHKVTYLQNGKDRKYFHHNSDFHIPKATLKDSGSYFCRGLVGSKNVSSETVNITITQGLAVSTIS
The assay is described as follows: SPR, steady state. Here is the method: as §1

The target in assay [6] is T7, human FcγRIIa 167R variant, His6-tagged (human, UniProt P12318 34-218).
T7 construct: also called FcG RIIa (167R)
T7 sequence (looked up): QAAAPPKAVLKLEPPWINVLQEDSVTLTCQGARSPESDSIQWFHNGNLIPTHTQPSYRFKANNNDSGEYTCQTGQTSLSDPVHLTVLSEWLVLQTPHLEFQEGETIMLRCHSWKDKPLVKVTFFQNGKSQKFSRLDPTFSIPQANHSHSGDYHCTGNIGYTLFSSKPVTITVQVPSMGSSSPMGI
The assay is described as follows: SPR, steady state. Here is the method:
as §1

The next assay concerns the target T8, human FcRn (human, UniProt P55899 24-297, limits assumed).
T8 construct: also called hFcRn
The assay is described as follows: SPR, steady state, pH 6. As for the experimental part: The interactions between monomeric IgG and FcRn are relatively low affinity and pH-sensitive interactions, so ‘steady state’ affinity analyses were performed under the following conditions: A CM5 chip was directly coupled with hFcRn in sodium acetate pH 5.5 using standard amine chemistry. Running buffer was PBS 0.05% P20+150 mM NaCl (pH 6.0 or pH 7.4), flow rate 30 μl/min, 5 point three-fold dilutions of purified antibodies from 3000 nM to 37.0 nM applied with an association time of 18s, dissociation time 100 s.

Assay [7] deals with T9, cynomolgus monkey C-KIT-Fc protein (cynomolgus monkey).
T9 construct: also called cyno C-KIT-Fc; cyno C-KIT
The assay is described as follows: direct ELISA, IgG at 1 µg/ml. Background: In an ELISA, binding on a coated surface is turned into a signal by an enzyme label.

In assay [8] the target is T9, cynomolgus monkey C-KIT-Fc protein. The assay is described as follows: HTRF competition vs terbium-labelled h37M IgG1. For orientation: Time-resolved FRET reads energy transfer from a long-lived donor to a nearby acceptor.
The target is the same in assay [9]. The assay is described as follows: HTRF competition vs terbium-labelled h37M IgG1. This is another data set of the same source.

T8 sequence (P55899 24-297 limits assumed, form in doubt): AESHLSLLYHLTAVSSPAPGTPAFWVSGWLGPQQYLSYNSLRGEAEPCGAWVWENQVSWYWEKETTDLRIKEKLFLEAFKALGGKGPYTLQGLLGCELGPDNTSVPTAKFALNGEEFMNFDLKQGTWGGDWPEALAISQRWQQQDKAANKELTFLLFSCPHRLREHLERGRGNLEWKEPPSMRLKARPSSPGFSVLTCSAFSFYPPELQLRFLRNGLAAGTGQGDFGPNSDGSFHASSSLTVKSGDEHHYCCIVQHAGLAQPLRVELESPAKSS
T1 sequence (P12314 16-288 limits assumed): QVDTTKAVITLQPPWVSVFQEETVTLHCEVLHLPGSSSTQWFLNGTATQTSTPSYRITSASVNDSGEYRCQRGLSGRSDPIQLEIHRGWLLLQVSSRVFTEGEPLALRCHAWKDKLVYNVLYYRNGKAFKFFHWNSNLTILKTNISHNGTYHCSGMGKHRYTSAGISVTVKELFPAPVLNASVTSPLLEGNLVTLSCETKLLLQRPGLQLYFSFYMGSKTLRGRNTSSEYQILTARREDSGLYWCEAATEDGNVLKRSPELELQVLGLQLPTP

B1: h37M IgG1 (antibody)
heavy: not shown
VL: DIVMTQSPSSLSASVGDRVTITCKASQNVRTNVAWYQQKPGKAPKALIYSASYRYSGVPDRFTGSGSGTDFTLTISSLQPEDFADYFCQQYNSYPRTFGGGTKVEIK
notes: Humanized 37M, human IgG1; Terbium-labelled as tracer in HTRF; also called C-KIT-h37M; IgG1-h37M; copies: 2 + 2
Usually Kd stands for a measure of binding affinity in units of concentration. As a reminder, the IC50 is the concentration at which inhibition is half-maximal. As for B1, the Kd with human FcγRI, His6-tagged came out at 1.06 nM; in assay [1], 512 nM; in assay [2], 1440 nM; in [3], 82 nM; in [4], 41.1 nM; in assay [5], 249 nM. Besides, the results for the Kd (in assay [6]; in the assay with human FcRn) were 447 nM and 1240 nM, respectively. In assay [7], this molecule yielded an OD450 nm of more than 2 OD450 nm. In addition, the IC50 in [8] was 0.035 µg/mL; in assay [9], 0.036 µg/mL.
